Results taken from the supplement of paper PMC10126150.
± gives the standard deviation of the averaged measurements.

system: ATP; test: switch fluorescence ratio, 500 uM ATP over buffer (Cy3 cluster intensity, sum of 5 cycles each) (fold (ratio)); higher = stronger signal-on switching upon ATP binding; sequences stand for … in TCGTCGGCAGCGTCAGATGTGTATAAGAGACAGTTTTTTTTTTTTTTTTTTTTTTTTT…TC; conditions: aptamer strand: ATP DNA aptamer (quencher-CACCTGGGGGAGTATTGCGGAGGAAGG + anchor), 100 nM annealed; ATP concentration: 500 uM
In short: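 Imaging in selection buffer was followed by imaging after 15 min with 500 uM ATP at 22 °C, for Cy3-labelled switching-strand clusters annealed to 100 nM quencher-labelled ATP aptamer on a modified Illumina MiSeq flow-cell. Five of these buffer/ATP cycles ran, separated by NaOH stripping and re-annealing. The fluorescence ratio per cluster is summed target-cycle over summed buffer-cycle Cy3 intensity, averaged per switch-domain sequence; clusters outside 100-1000 RFU were removed.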
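Also: ATP exposure 15 min at 22 °C before imaging.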

Row | Sequence | switch fluorescence ratio
1 | CGCCATGGCC | 0.9924 ± 0.0066
2 | ATTTTGTTTG | 0.994 ± 0.012
3 | ATGAAAATCA | 1.01 ± 0.019
4 | CCTCGCGGGA | 1.8 ± 0.028
5 | TCTGCTTGGG | 1.09 ± 0.13
6 | TACTTAAAGT | 1 ± 0.022
7 | TAATAGGGTT | 1.01 ± 0.027
8 | ACTGCCCGGC | 1.1 ± 0.12
9 | AGGCCGGAAG | 0.9945 ± 0.0095
10 | TATTGGGCCC | 0.9954 ± 0.0019
11 | GCTATTGAAA | 0.9922 ± 0.0018
12 | TAAAAAGCGG | 1.01 ± 0.054
13 | GCGCTAAGTT | 0.984 ± 0.015
14 | AGGAGGTTCC | 1.02 ± 0.061
15 | GGGCTATCCG | 0.983 ± 0.024
16 | TGATTCAAAT | 1.02 ± 0.0087
17 | GTTCAAAGCG | 0.999 ± 0.029
18 | TTGTATCTTT | 1.03 ± 0.011
19 | GAAGGAGTGG | 1.027 ± 0.01
20 | TGGTAGTTTT | 0.9899 ± 0.0078
21 | TCGGGGTGTA | 1 ± 0.011
22 | GTCTGGGCGA | 1.01 ± 0.033
23 | TAAGTTATTT | 0.986 ± 0.031
24 | CCGGGTAATG | 1.27 ± 0.028
25 | CGGCAAAGTA | 0.972 ± 0.065

Row | Sequence | switch fluorescence ratio
26 | GAGGTGAGTT | 0.983 ± 0.01
27 | CCACGGGGGG | 1.27 ± 0.1
28 | AATGGTATTC | 0.998 ± 0.025
29 | TAGGTGAAGG | 1 ± 0.0069
30 | GGATAGTCGG | 1 ± 0.028
31 | CAAGGGGTCG | 0.9946 ± 0.0066
32 | ATTGGAGGGG | 1.008 ± 0.0041
33 | CGTTTATGGT | 0.967 ± 0.022
34 | ATGGGTTTCT | 0.989 ± 0.026
35 | GGGGTTATTA | 0.992 ± 0.017
36 | CAGGGATAGT | 1.26 ± 0.32
37 | CGTATGGGAG | 0.9452 ± 0.0036
38 | CGGTGAGCGA | 1.03 ± 0.044
39 | CTGAGTAGTT | 1.01 ± 0.018
40 | TTCAGGGCGC | 1.03 ± 0.053
41 | GATGTGGGGC | 0.996 ± 0.029
42 | ATGGTGGGGG | 0.995 ± 0.034
43 | ACGCGACGG | 1.13 ± 0.018
44 | ACAGTTAGGG | 1.02 ± 0.024
45 | TATTGGATTA | 1.01 ± 0.026
46 | ACTCGAAGGG | 1.02 ± 0.042
47 | TTATCGGGGT | 1.019 ± 0.008
48 | TTTTAAGGCA | 1.03 ± 0.031
49 | CTAACTTATT | 1.01 ± 0.013
50 | TCGATTGTGG | 1.02 ± 0.03

Row | Sequence | switch fluorescence ratio
51 | GGGTTATTGA | 0.995 ± 0.01
52 | CAGTATCCTT | 1.027 ± 0.003
53 | TGTTCCTTTT | 1.03 ± 0.023
54 | GGGGCGATTG | 1.02 ± 0.013
55 | AATCCTGTTT | 1.01 ± 0.067
56 | AATTAATTAA | 1.004 ± 0.01
57 | TCGTAGGGGA | 1.03 ± 0.025
58 | TTTGGACAGT | 0.978 ± 0.03
59 | TGGTTAAATC | 1.03 ± 0.019
60 | GGCGGGGAGG | 1.01 ± 0.033
61 | TTTTTACCTT | 1.07 ± 0.046
62 | GCTGGGGCGT | 0.9851 ± 0.005
63 | TCCTGAGTTA | 0.996 ± 0.011
64 | AAGAGAGGGT | 0.998 ± 0.042
65 | TACCGGTCGG | 0.999 ± 0.019
66 | TACTTTGTGA | 1.1 ± 0.15
67 | ATGGTGGATT | 0.965 ± 0.025
68 | TAAATAATCG | 0.968 ± 0.038
69 | CTCATATAGA | 0.991 ± 0.045
70 | TATAGGCCGG | 0.991 ± 0.02
71 | GATGAGAGGA | 1.03 ± 0.05
72 | TTTACCATAG | 1.06 ± 0.019
73 | GCGATGGATA | 0.96 ± 0.056
74 | TAGACCGTTC | 1.108 ± 0.0068
75 | TTTTCATCGC | 1.18 ± 0.18

Row | Sequence | switch fluorescence ratio
76 | AGGTTGAGG | 1.01 ± 0.021
77 | GCATCAATTT | 1.016 ± 0.0012
78 | AGTTGCCCGG | 1.006 ± 0.0068
79 | GCGCTACTAG | 1.02 ± 0.021
80 | TCCTAGGGGT | 2.44 ± 1.2
81 | TGGCCGATGG | 0.986 ± 0.052
82 | GGGGGTGAAA | 0.987 ± 0.011
83 | GAGCTCTTTC | 1.01 ± 0.017
84 | TTCAAGCAAG | 1.15 ± 0.015
85 | AGGGTCTTTT | 1.03 ± 0.053
86 | CTGTCCTTTT | 1.11 ± 0.17
87 | AAAATGGTAT | 1.01 ± 0.038
88 | CATACTTCAT | 1.049 ± 0.0063
89 | GGTGCATAGC | 0.9714 ± 0.0074
90 | TGATGTTTGA | 0.9947 ± 0.0094
91 | ATTATAACTC | 0.957 ± 0.036
92 | GTTATCAGAT | 1.02 ± 0.021
93 | GGTGTATTAG | 1 ± 0.029
94 | GTTTTCGTGG | 0.995 ± 0.021
95 | AAACGTACTT | 1.58 ± 0.086
96 | TGATAGGGCG | 0.963 ± 0.08
97 | TATCACGCAT | 1.36 ± 0.018
98 | AAAAAAATCG | 1.01 ± 0.028
99 | TGGTTTTTAA | 0.977 ± 0.052
100 | GTTATCACTG | 1.02 ± 0.014

Row | Sequence | switch fluorescence ratio
101 | TTAGTAATGT | 1.06 ± 0.072
102 | GAGTTCGCGT | 1.093 ± 0.0049
103 | GAAGTCCGGG | 0.9871 ± 0.0048
104 | GGGGCTGTGC | 0.976 ± 0.034
105 | GCCCAAAAGA | 1.02 ± 0.02
106 | TTTTCCCATT | 1.02 ± 0.075
107 | TGTTTTAGT | 0.992 ± 0.024
108 | TTTCAGGTCC | 1.03 ± 0.065
109 | ATTAGGGGCC | 0.976 ± 0.018
110 | TGTATTGAAC | 1.03 ± 0.0024
111 | AGTGACATCG | 1.14 ± 0.076
112 | CGGCATGGTG | 0.98 ± 0.02
113 | ACGTTTTTTT | 0.988 ± 0.035
114 | TTTGGATTGG | 0.967 ± 0.023
115 | ACTAGGTCCG | 1.005 ± 0.0016
116 | GGCTACAGGG | 0.999 ± 0.011
117 | TGGCGAATTA | 0.978 ± 0.026
118 | CGCTAGGAAA | 1.006 ± 0.0076
119 | GGAATCCGTT | 1.027 ± 0.0025
120 | AGAAAAAAGT | 1.03 ± 0.12
121 | ATGGGGGGGA | 1.02 ± 0.027
122 | TTTAAAAAGG | 0.982 ± 0.029
123 | GGAGCCCGGT | 1.01 ± 0.029
124 | GGGGCAACGG | 1.05 ± 0.12
125 | GTTGAAGGAT | 1.003 ± 0.0036

Row | Sequence | switch fluorescence ratio
126 | TCCGCTTGA | 1.58 ± 0.047
127 | TGTTGGAGGG | 1.04 ± 0.027
128 | TTGTTTAAGT | 1.001 ± 0.0081
129 | TTGTGGTGAG | 0.987 ± 0.016
130 | TTAGGGATTG | 1 ± 0.03
131 | CAATTTCCAG | 1.02 ± 0.026
132 | GGGGATAAGA | 0.985 ± 0.036
133 | TTAGGTTACT | 1.028 ± 0.0039
134 | AGATAACCCA | 1 ± 0.052
135 | GGGCCTGGGG | 0.998 ± 0.048
136 | AGGGGGGTCT | 1.01 ± 0.04
137 | GTATACATTG | 1.02 ± 0.027
138 | GTGTCTTTGA | 0.986 ± 0.055
139 | CAGAGGTCGT | 1.013 ± 0.0081
140 | TAAGGGAAAT | 1 ± 0.065
141 | ACTGAGGTAA | 0.95 ± 0.043
142 | CCGGAAATTT | 1.01 ± 0.019
143 | AGGAATTTTT | 0.968 ± 0.018
144 | TCGGACTTTT | 1.04 ± 0.012
145 | TCTTTATACT | 1.05 ± 0.034
146 | GAGTAGTAGT | 0.967 ± 0.026
147 | TAAGGGGAAT | 1 ± 0.039
148 | AATAGCATGT | 0.981 ± 0.012
149 | CAAAATGTTC | 1.021 ± 0.0086
150 | CCTCTGGTTT | 2.84 ± 0.37

Row | Sequence | switch fluorescence ratio
151 | AACGAAAATG | 0.997 ± 0.053
152 | TTCGTATATT | 1.02 ± 0.017
153 | CGGGAAAAGA | 1.58 ± 0.99
154 | CGTGTAATGG | 1.042 ± 0.0015
155 | ATACCCTAGC | 1.09 ± 0.014
156 | TGAGGTCACG | 0.982 ± 0.036
157 | CGATGGTGAA | 1.02 ± 0.035
158 | ACTCTAAAAA | 1.05 ± 0.012
159 | TGGGTTTTCA | 0.984 ± 0.016
160 | GGGGCGCGGA | 1.09 ± 0.12
161 | CCATATAGTT | 0.986 ± 0.03
162 | TGGGGGACAT | 1.01 ± 0.028
163 | GATATGTTGG | 0.999 ± 0.017
164 | ATGCATTATG | 1.02 ± 0.016
165 | ACCAGGAGAT | 1.046 ± 0.0011
166 | ACTACTGCTG | 1.05 ± 0.0044
167 | AGCTAGCAGG | 0.974 ± 0.039
168 | CTGGGATTAT | 0.9755 ± 0.0074
169 | ATGTAGAAAT | 1.05 ± 0.039
170 | CGTCGGTAAG | 1.04 ± 0.027
171 | GAGGTTAAAT | 0.992 ± 0.034
172 | AGAATAGTCA | 1 ± 0.037
173 | TTTTAGTTCC | 1.05 ± 0.018
174 | CATCGTGGTT | 0.9778 ± 0.0043
175 | TCGAATGGCT | 1 ± 0.044

Row | Sequence | switch fluorescence ratio
176 | GAGGCAATTT | 2.87 ± 0.68
177 | TGGGAAAAAT | 0.994 ± 0.04
178 | ATTGGGGTTT | 1 ± 0.019
179 | AGATCTATAC | 1.018 ± 0.0096
180 | ACTCTTGTTT | 1.03 ± 0.014
181 | TTTAATCAGG | 1.04 ± 0.025
182 | GCTACGTGTT | 1.053 ± 0.007
183 | CAAGATGGGG | 0.95 ± 0.023
184 | CTGTATTGGG | 0.977 ± 0.013
185 | GATTTAGATT | 1 ± 0.046
186 | TATGGGAGGC | 1.01 ± 0.059
187 | TATCTCAACG | 1.045 ± 0.006
188 | GTTTAGCTGT | 0.9948 ± 0.0021
189 | AGATAGAGTT | 0.997 ± 0.021
190 | CATGGGGGGA | 0.994 ± 0.018
191 | CATTTGCCTT | 1.03 ± 0.035
192 | TGGGGTTTTG | 0.979 ± 0.015
193 | TTGGAACATA | 0.986 ± 0.03
194 | ATTCCCGGTT | 1.03 ± 0.022
195 | GAGGTAGCGT | 1.01 ± 0.015
196 | TAGGGATGGG | 1.02 ± 0.019
197 | TTTCAGAGTC | 1.01 ± 0.064
198 | GCTCTATGTG | 1.01 ± 0.018
199 | GATGTCCCAG | 1 ± 0.017
200 | GAGTTTTTTA | 0.98 ± 0.046
